# Assay results published in patent publication US10254283.
# Experiments:
# [1] = tested on: positional scanning peptide library Y-A-X-X-X-X-X-S/T-X-X-X-X-A-G-K-K-biotin
# Chain of Flag-eIF4B (wild type) (chain, as listed by the source): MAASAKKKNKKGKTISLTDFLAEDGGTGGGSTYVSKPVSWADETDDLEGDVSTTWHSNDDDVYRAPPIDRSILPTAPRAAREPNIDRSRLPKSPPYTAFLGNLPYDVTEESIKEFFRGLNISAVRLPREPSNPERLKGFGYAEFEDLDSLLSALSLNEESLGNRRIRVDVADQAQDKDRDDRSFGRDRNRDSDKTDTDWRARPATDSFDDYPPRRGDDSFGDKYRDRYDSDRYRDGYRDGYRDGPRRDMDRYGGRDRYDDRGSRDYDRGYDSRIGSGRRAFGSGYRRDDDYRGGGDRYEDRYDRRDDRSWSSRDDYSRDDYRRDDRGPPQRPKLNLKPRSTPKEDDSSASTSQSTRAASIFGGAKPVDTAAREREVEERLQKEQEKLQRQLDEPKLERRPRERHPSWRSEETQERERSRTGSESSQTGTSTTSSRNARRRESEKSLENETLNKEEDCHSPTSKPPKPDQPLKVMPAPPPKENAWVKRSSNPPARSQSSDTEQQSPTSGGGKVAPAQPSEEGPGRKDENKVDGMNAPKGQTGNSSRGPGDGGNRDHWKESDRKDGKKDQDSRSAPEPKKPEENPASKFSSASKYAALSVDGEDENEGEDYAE
# Chain of Flag-eIF4B (S406A) (chain, as listed by the source S406A): as the sequence (chain, as listed by the source) above, with S406A counted along it
substance,measurement,setting,value
recombinant full-length MELK,"in vitro kinase assay, phosphorylation of eIF4B at S406 (immunoblot)",Flag-eIF4B (S406A),This phosphorylation was abolished when wild type (wt) eIF4B was replaced with a mutant eIF4B (S406A)
same,"in vitro kinase assay, phosphorylation of eIF4B at Ser406 (immunoblot)",Flag-eIF4B (wild type),"Ser406, but not Ser422, of human eIF4B was readily phosphorylated by full-length MELK or the kinase domain of MELK"
same,"in vitro kinase assay, phosphorylation of eIF4B at Ser422 (immunoblot)",Flag-eIF4B (wild type),MELK does not phosphorylates eIF4B at S422 in vitro
same,"positional scanning peptide library screen, in vitro phosphorylation with 32P-ATP",[1],an optimal substrate motif for MELK was identified having a strong selection for arginine at the -3 position relative to serine/threonine
